Reference: paper PMC7160150, “Transcriptional repression of GIF1 by the KIX-PPD-MYC repressor complex controls seed size in Arabidopsis”

B1: probe A-m (dsDNA)
DNA 1: TAAAGTATGACTCGTAGCCGTACCTCCTCTTCTTCGC
DNA 2: GCGAAGAAGAGGAGGTACGGCTACGAGTCATACTTTA
B2: probe A (dsDNA)
DNA 1: TAAAGTATGACTCGTCACGTGACCTCCTCTTCTTCGC
DNA 2: GCGAAGAAGAGGAGGTCACGTGACGAGTCATACTTTA
B3: unlabelled probe A (dsDNA)
DNA 1: B2 DNA 1
DNA 2: B2 DNA 2

Experiments:
MBP-MYC4 [1] = molecular target: T1, MBP-MYC4 (Arabidopsis thaliana (Col-0), UniProt O49687 1-589); assay: EMSA; EMSA kit (Thermo), room temperature, 20 min; binding buffer not stated (protein extraction buffer: 50 mM HEPES pH 7.5, 150 mM NaCl, 1 mM EGTA, 1% Triton X-100); settings: protein: recombinant; tags: MBP; chain copies: 2; label: 5'-biotin
MBP-MYC3 [2] = molecular target: T2, MBP-MYC3 (Arabidopsis thaliana (Col-0), UniProt Q9FIP9 1-592); assay: as above; settings: protein: recombinant; tags: MBP; chain copies: 2; label: 5'-biotin
MBP-MYC4 [3] = molecular target: T1, MBP-MYC4; assay: competition; competes with biotin probe A; EMSA kit (Thermo), room temperature, 20 min; binding buffer not stated (protein extraction buffer: 50 mM HEPES pH 7.5, 150 mM NaCl, 1 mM EGTA, 1% Triton X-100); settings: protein: recombinant; tags: MBP; chain copies: 2
MBP-MYC3 [4] = molecular target: T2, MBP-MYC3; assay: as above; settings: protein: recombinant; tags: MBP; chain copies: 2

T1 sequence (O49687 whole entry): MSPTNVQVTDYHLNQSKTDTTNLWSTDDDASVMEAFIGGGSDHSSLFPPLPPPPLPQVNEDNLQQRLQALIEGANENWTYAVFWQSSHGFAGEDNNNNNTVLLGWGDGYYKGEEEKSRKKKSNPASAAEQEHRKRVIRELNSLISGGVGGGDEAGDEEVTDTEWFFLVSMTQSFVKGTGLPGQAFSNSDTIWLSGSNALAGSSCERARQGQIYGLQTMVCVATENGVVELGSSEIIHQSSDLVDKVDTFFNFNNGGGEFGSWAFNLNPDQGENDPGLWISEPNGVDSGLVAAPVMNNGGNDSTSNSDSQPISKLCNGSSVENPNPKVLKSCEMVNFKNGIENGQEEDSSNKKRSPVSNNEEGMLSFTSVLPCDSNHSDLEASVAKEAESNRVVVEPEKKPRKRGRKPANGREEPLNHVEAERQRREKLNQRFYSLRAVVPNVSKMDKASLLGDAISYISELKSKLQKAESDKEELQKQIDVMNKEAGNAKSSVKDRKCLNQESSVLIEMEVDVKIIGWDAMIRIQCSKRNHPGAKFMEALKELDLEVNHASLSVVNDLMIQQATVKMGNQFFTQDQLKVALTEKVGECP
T2 sequence (Q9FIP9 whole entry): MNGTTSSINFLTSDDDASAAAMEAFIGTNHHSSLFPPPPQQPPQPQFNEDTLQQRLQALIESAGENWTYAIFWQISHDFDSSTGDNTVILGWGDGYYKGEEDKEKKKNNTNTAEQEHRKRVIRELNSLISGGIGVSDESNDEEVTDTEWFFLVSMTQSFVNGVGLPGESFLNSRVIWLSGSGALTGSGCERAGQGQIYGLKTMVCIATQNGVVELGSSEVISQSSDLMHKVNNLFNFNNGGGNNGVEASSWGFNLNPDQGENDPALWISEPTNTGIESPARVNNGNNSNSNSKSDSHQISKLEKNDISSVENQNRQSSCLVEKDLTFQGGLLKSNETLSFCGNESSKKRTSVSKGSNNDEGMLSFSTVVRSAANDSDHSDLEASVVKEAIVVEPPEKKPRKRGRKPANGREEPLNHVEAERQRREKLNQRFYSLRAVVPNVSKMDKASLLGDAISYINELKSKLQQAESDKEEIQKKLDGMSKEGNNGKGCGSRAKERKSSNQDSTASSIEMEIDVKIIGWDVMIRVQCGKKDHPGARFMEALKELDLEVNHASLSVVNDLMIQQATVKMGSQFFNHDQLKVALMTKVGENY

| Binder | binding result (MBP-MYC4 [1]) | binding result (MBP-MYC3 [2]) | binding result (MBP-MYC4 [3]) | binding result (MBP-MYC3 [4]) |
| --- | --- | --- | --- | --- |
| B1 | no binding | no binding |  |  |
| B2 | binds | binds |  |  |
| B3 |  |  | binds | binds |
